Laboratory results from patent US20040151713.
Positions count from the first letter of the chain named. Names may count otherwise.

How the values were obtained:
[1] = biological target: GST-Cdc25B S309A [GST: P08515]
[2] = biological target: GST-fusion recombinant protein containing human Weel (full-length protein), P30291
[3] = biological target: T1, GST-Cdc25B (C terminal peptide: 281-381aa), P30305
T1 chain: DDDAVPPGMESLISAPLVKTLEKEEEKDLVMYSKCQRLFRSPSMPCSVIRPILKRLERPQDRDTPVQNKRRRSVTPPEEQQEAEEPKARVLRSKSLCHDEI

[4] = biological target: T2, GST-Cdc25C (C terminal peptide: 195-260aa), P30307
T2 chain: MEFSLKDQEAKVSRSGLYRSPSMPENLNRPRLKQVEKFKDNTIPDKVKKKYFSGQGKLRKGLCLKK

[5] = biological target: GST-Cdc25C S216A [GST: P08515]

Chain of GST-fusion recombinant protein containing human Weel (full-length protein), P30291 (P30291 whole entry, looked up, the tested form may be a part): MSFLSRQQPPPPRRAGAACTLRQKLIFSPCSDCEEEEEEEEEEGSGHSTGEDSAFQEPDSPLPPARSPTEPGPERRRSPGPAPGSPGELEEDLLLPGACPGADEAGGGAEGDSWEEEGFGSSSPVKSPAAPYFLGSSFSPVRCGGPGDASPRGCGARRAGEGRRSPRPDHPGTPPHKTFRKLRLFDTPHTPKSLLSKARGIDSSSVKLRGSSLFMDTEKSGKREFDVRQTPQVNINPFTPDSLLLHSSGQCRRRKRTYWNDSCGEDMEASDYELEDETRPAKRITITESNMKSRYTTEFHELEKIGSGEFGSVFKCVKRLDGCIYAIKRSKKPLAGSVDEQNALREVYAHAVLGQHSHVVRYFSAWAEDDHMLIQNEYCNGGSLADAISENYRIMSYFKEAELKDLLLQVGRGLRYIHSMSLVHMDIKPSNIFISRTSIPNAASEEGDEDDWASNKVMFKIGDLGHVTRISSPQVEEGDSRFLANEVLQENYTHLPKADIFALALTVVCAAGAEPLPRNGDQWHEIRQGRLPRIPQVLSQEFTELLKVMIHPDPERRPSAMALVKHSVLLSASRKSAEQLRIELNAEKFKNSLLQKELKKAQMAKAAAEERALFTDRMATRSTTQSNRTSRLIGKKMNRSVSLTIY

B1: hCdr2 wild-type (wt) recombinant protein with c-Myc tag (protein)
chain: MSSGAKEGGGGSPAYHLPHPHPHPPQHAQYVGPYRLEKTLGKGQTGLVKLGVHCITGQKVAIKIVNREKLSESVLMKVEREIAILKLIEHPHVLKLHDVYENKKYLYLVLEHVSGGELFDYLVKKGRLTPKEARKFFRQIVVCAGLCHSYSICHRDLKPENLLLDEKNNIRIADFGMASLQVGDSLLETSCGSPHYACPEVIKGEKYDGRRADMWSCGVILFALLVGALPFDDDNLRQLLEKVKRGVFHMPHFIPPDCQSLLRGMIEVEPEKRLSLEQIQKHPWYLGGKHEPDPCLEPAPGRRVAMRSLPSNGELDPDVLESMASLGCFRDRERLHRELRSEEENQEKMIYYLLLDRKERYPSCEDQDLPPRNDVDPPRKRVDSPMLSRHGKRRPERKSMEVLSITDAGGGGSPVPTRRALEMAQHSQRSRSVSGASTGLSSSPLSSPRSPVFSFSPEPGAGDEARGGGSPTSKTQTLPGPPGSPRSSGGTPLHSPLHTPRASPTGTPGTTPPPSPGGGVGGAAWRSRLNSIRNSFLGSPRFHRRKMQVPTAEEMSSLTPESSPELAKRSWFGNFISLDKEEQIFLVLKDKPLSSIKADIVHAFLSIPSLSHSVLSQTSFRAEYKASGGPSVFQKPVRFQVDISSSEGPEPSPRRDGSGGGGIYSVTFTLISGPSRRFKRVVETIQAQLLSTHDQPSVQALADEKNGAQTRPAGAPPRSLQPPPGRPDPELSSSPRRGPPKDKKLLATNGTPLP
With B1 the “in vitro kinase assay (32P autoradiography)” value (“in vitro kinase assay” for short) [1] was “When GST-Cdc25B S309A was used as a substrate, even the hCdr2 wt protein did not provide phosphorylation action”, the “in vitro kinase assay” value [2] was “the human Weel could not be phosphorylated” and the “in vitro kinase assay” value [3] was “the hCdr2 wt protein severely phosphorylated the GST-Cdc25B (C terminal peptide: 282-381aa)”. For the same protein, the “in vitro kinase assay” value [4] was “the hCdr2 wt protein phosphorylated GST-Cdc25C (C terminal peptide: 195-260aa)” and the “in vitro kinase assay” value [5] was “When GST-Cdc25C S216A was used as a substrate, phosphorylation of the hCdr2 wt protein did not occur”.

B2: hCdr2 K59A kinase-dead mutated protein with c-Myc tag (protein)
chain: B1 chain with K59A
With B2 the “in vitro kinase assay” value [3] was “the weak phosphorylating action exhibited by the mock and hCdr2 K59A” and the “in vitro kinase assay” value [4] was “but failed to phosphorylate the hCdr2 K59A protein”.
